B1: Cif from Photorhabdus luminescens (natural protein)
chain: SKFKKNSINTIKLIDDIIALHNDPKGNKLLWNDNWQDKIINRDLANIFEKIDESVSELGGLEMYQEMVGVNPYDPTEPVCGLSAQNIFKLMTEGEHAVDPVEMAQTGKIDGNEFAESVDQLSSAKNYVALVNDRRLGHMFLIDIPSNDQETVGYIYQSDLGQGALPPLKIADWLNSRGKDAVSLNKLKKLLSREFNLLSDDEKRALISETLDIHKDVSNVELDRIKRDRGVDIYLTEYDVNNFYENIETLKSKLSNYDKKLSKPK
notes: also called CifPl; source: E. coli BL21(DE3) or B834(DE3), pET28a, purified (Ni2+-IMAC, Superdex 75)
B2: Cif from Photorhabdus asymbiotica (natural protein)
chain: MMREYSKEDDCVKEKTNLAESENVEADNYLEMDCLNYLAKLNGMPERKDHSLNSTKLIDDIIKLHNDRKGNKLLWNDNWQDKIIDRDLESIFKKIDEMVSEFGGIEIYKDIVGENPYDPTEPVCGYSAQNIFKLMTEGEHAVDPVKMAQTGKINGNEFAEKLEQLNSSNNYVALINDHRLGHMFLVDIPSTNREKVGYIYQSDLGDGALPALKIADWLKSRGKESINVNKLKKFLSNEFTMLSESEQKELIAEIFDINKDIANVKLGKIKKDKAVDVYLREYDLNDFISNIEKLKTKLV
notes: also called CifPa; P. asymbiotica Cif; source: E. coli BL21(DE3) or B834(DE3), pET28a, purified (Ni2+-IMAC, Superdex 75)

Tests used:
[1] = target: cycle inhibiting factor (Cif) from enteropathogenic Escherichia coli (EPEC) (enteropathogenic Escherichia coli (EPEC)); experiment: SEC
SEC = target: the molecule itself; experiment: SEC

Row | Molecule | stoichiometry N [1] | stoichiometry N (SEC)
1 | cycle inhibiting factor (Cif) from enteropathogenic Escherichia coli (EPEC) (natural protein) | 2 | 
2 | B1 |  | 2
3 | B2 |  | 2
